Sequences and labels used below:
B1: RanBP-type and C3HC4-type zinc finger-containing protein 1, residues 369 to 411; numbered along this chain, Q9BYM8 (parent)
chain: YHCKTPDCKGWCFFEDDVNEFTCPVCFHVNCLLCKAIHEQMNC

± gives the uncertainty stated by the source.

The variants in the data set derive from B1. Kind of data set: abundance fitness (aPCA) (normalised: wild type 0, dead -1); higher = more abundant; growth selection in yeast, the domain comes from the species named. As to conditions: Homo sapiens.
In the case of E15T, the abundance fitness was -0.042 ± 0.06.

On to E15Q, for which the abundance fitness is -0.096 ± 0.068.

Regarding E15D, the abundance fitness was -0.201 ± 0.16.

As to K35Q, the abundance fitness was -0.026 ± 0.06.

Take K35C: the abundance fitness is -0.069 ± 0.1.

For the variant K35W, the abundance fitness was -0.385 ± 0.064.

Regarding K35M, the abundance fitness is -0.026 ± 0.07.

Turning to T5A, the abundance fitness is -0.131 ± 0.062.

With T5M, the abundance fitness was found to be 0.003 ± 0.059.

For the variant T5Y, the abundance fitness was -0.169 ± 0.098.

As for T5E, the abundance fitness was -0.184 ± 0.061.

For H28S, the abundance fitness was -0.029 ± 0.048.

Take H28P: the abundance fitness is -0.912 ± 0.077.

On to H28G, for which the abundance fitness was -0.103 ± 0.038.

Regarding N30Y, the abundance fitness is -0.614 ± 0.14.

For N30S, the abundance fitness is -0.797 ± 0.076.

For the variant N30D, the abundance fitness is -0.79 ± 0.15.

Turning to N30H, the abundance fitness was -0.42 ± 0.14.

As to N30G, the abundance fitness is -0.811 ± 0.059.

With H38C, the abundance fitness was -0.774 ± 0.091.

On to H38L, for which the abundance fitness was -1.14 ± 0.11.

In the case of P6G, the abundance fitness was -0.494 ± 0.044.

As for P6H, the abundance fitness is -0.434 ± 0.12.

On to P6A, for which the abundance fitness is -0.115 ± 0.044.

As for H2C, the abundance fitness is -0.103 ± 0.069.

As for H2V, the abundance fitness was -0.739 ± 0.071.

Consider H2E, for which the abundance fitness was -0.554 ± 0.07.

As to H2S, the abundance fitness is -0.072 ± 0.05.

As for H2D, the abundance fitness is -0.275 ± 0.11.

Take D17W: the abundance fitness is -0.133 ± 0.065.

As for D17E, the abundance fitness was determined as 0.06 ± 0.046.

In the case of C43A, the abundance fitness is -0.372 ± 0.076.

Take C43N: the abundance fitness was -0.511 ± 0.15.

Regarding C43Y, the abundance fitness is -0.424 ± 0.12.

As for C43M, the abundance fitness is -0.507 ± 0.43.

As for P24T, the abundance fitness is -0.324 ± 0.06.

For P24L, the abundance fitness was -0.681 ± 0.13.

Consider P24Q, for which the abundance fitness was -0.099 ± 0.077.

For the variant P24A, the abundance fitness was -0.558 ± 0.052.

In the case of P24R, the abundance fitness is -0.39 ± 0.047.

With F14Q, the abundance fitness was -0.295 ± 0.12.

With F14W, the abundance fitness came to 0.075 ± 0.24.

Regarding L33W, the abundance fitness was -0.262 ± 0.049.

As for L33D, the abundance fitness is -0.148 ± 0.09.

With L33N, the abundance fitness was -0.116 ± 0.1.

For L33T, the abundance fitness was -0.026 ± 0.057.

Q40T: the abundance fitness amounted to 0.068 ± 0.045.

Regarding Q40W, the abundance fitness was -0.542 ± 0.075.

For the variant Q40N, the abundance fitness amounted to 0.036 ± 0.093.

On to Q40G, for which the abundance fitness was found to be 0.129 ± 0.038.

For the variant Q40P, the abundance fitness is 0.005 ± 0.049.

In the case of C23Q, the abundance fitness is -0.621 ± 0.058.

For C23V, the abundance fitness is -0.911 ± 0.096.

C23T: the abundance fitness was -0.761 ± 0.076.

On to F21H, for which the abundance fitness was -0.665 ± 0.4.

Take F21A: the abundance fitness came out at 0.083 ± 0.043.

Turning to F21M, the abundance fitness was -0.188 ± 0.079.

Take F21S: the abundance fitness is 0.07 ± 0.043.

Consider D7G, for which the abundance fitness came out at 0.057 ± 0.04.

For D7H, the abundance fitness is -0.2 ± 0.067.

Consider E39M, for which the abundance fitness is -0.143 ± 0.072.

Consider E39F, for which the abundance fitness was -0.213 ± 0.11.

Consider E39S, for which the abundance fitness is -0.09 ± 0.051.

Consider E39K, for which the abundance fitness is -0.021 ± 0.059.

Consider E39C, for which the abundance fitness is -0.27 ± 0.095.

Regarding I37F, the abundance fitness was -0.412 ± 0.086.

As for I37R, the abundance fitness is -0.145 ± 0.039.

Take I37Q: the abundance fitness was -0.077 ± 0.18.

With I37D, the abundance fitness is -0.107 ± 0.076.

Take C12Y: the abundance fitness came out at 0.04 ± 0.18.

As for K4Y, the abundance fitness is -0.084 ± 0.096.

For the variant K4D, the abundance fitness was -0.504 ± 0.11.

For the variant K4S, the abundance fitness is -0.14 ± 0.055.

In the case of A36F, the abundance fitness is -0.848 ± 0.12.

For A36N, the abundance fitness was -0.111 ± 0.065.

Turning to A36D, the abundance fitness was -0.053 ± 0.064.

For the variant A36M, the abundance fitness is -0.266 ± 0.068.

As for A36R, the abundance fitness was -0.015 ± 0.043.

A36T: the abundance fitness was found to be 0.005 ± 0.047.

Take A36S: the abundance fitness was 0.01 ± 0.05.

N42Q: the abundance fitness turned out to be 0.304 ± 0.099.

Consider N42W, for which the abundance fitness is -0.069 ± 0.085.

As for N42E, the abundance fitness is 0.075 ± 0.055.

In the case of N42Y, the abundance fitness is -0.122 ± 0.14.

Regarding N42C, the abundance fitness is -0.005 ± 0.094.

As to C8M, the abundance fitness is -0.843 ± 0.086.

Take C8F: the abundance fitness is -0.554 ± 0.46.

In the case of C8S, the abundance fitness was -0.682 ± 0.076.

On to E20V, for which the abundance fitness is -0.391 ± 0.052.

As to E20K, the abundance fitness is -0.202 ± 0.063.

Turning to E20G, the abundance fitness was -0.457 ± 0.048.

Regarding E20A, the abundance fitness is -0.311 ± 0.046.

Take K9T: the abundance fitness amounted to 0.056 ± 0.049.

As for K9A, the abundance fitness was 0.029 ± 0.044.

As to K9N, the abundance fitness is -0.19 ± 0.082.

Turning to K9E, the abundance fitness is 0.064 ± 0.054.

For W11M, the abundance fitness was 0.191 ± 0.065.

As to W11S, the abundance fitness came out at 0.132 ± 0.047.

Consider W11R, for which the abundance fitness turned out to be 0.036 ± 0.039.

Take V18S: the abundance fitness was -0.055 ± 0.052.

With V18E, the abundance fitness amounted to 0.001 ± 0.043.

As for V18T, the abundance fitness is -0.01 ± 0.073.

With C34T, the abundance fitness is -0.547 ± 0.068.

As for C34N, the abundance fitness was -0.536 ± 0.24.

C34F: the abundance fitness is -0.654 ± 0.11.

Turning to C34K, the abundance fitness is -0.623 ± 0.11.

Take N19S: the abundance fitness came out at 0.024 ± 0.047.

In the case of N19A, the abundance fitness is -0.023 ± 0.042.

On to N19G, for which the abundance fitness is -0.194 ± 0.038.

With N19T, the abundance fitness is 0.09 ± 0.047.

Consider N19Q, for which the abundance fitness was found to be 0.052 ± 0.052.

With D16V, the abundance fitness was -0.075 ± 0.049.

For D16A, the abundance fitness was determined as 0.006 ± 0.051.

D16E: the abundance fitness is 0.026 ± 0.053.

Turning to D16W, the abundance fitness is -0.349 ± 0.072.

Regarding D16G, the abundance fitness is -0.075 ± 0.047.

On to D16L, for which the abundance fitness is -0.166 ± 0.054.

Consider C31G, for which the abundance fitness was -0.655 ± 0.041.

For C31R, the abundance fitness is -0.558 ± 0.04.

As for F27H, the abundance fitness was determined as 0.155 ± 0.057.

As for F27R, the abundance fitness was found to be 0.005 ± 0.04.

Regarding F27I, the abundance fitness was -0.571 ± 0.21.

In the case of F27Q, the abundance fitness was determined as 0.059 ± 0.047.

Turning to Y1N, the abundance fitness was -0.408 ± 0.069.

For Y1C, the abundance fitness is -0.509 ± 0.11.

On to Y1I, for which the abundance fitness amounted to 0.051 ± 0.2.

With T22M, the abundance fitness was -0.29 ± 0.092.

Turning to T22D, the abundance fitness is -0.343 ± 0.11.

As to T22W, the abundance fitness was -0.422 ± 0.048.

Regarding T22C, the abundance fitness is -0.149 ± 0.055.

As for T22N, the abundance fitness is -0.32 ± 0.13.

Take T22F: the abundance fitness is -0.261 ± 0.16.

As to C3S, the abundance fitness is -0.831 ± 0.082.

Take C3P: the abundance fitness is -1.13 ± 0.12.

Regarding C3R, the abundance fitness was -0.906 ± 0.051.

As for M41W, the abundance fitness is -0.035 ± 0.055.

With M41P, the abundance fitness stood at 0.059 ± 0.052.

Take M41H: the abundance fitness came to 0.043 ± 0.083.

On to M41C, for which the abundance fitness is -0.004 ± 0.068.

As to M41E, the abundance fitness was 0.135 ± 0.061.

With M41I, the abundance fitness is -0.112 ± 0.069.

With F13E, the abundance fitness was found to be 0.428 ± 0.14.

As for G10K, the abundance fitness is -0.621 ± 0.14.

Regarding G10P, the abundance fitness is -0.723 ± 0.14.

On to G10M, for which the abundance fitness was -0.563 ± 0.11.

For the variant G10N, the abundance fitness is -0.79 ± 0.16.

V25T: the abundance fitness is -0.36 ± 0.064.

As for V25A, the abundance fitness was -0.136 ± 0.066.

On to V25Y, for which the abundance fitness was -0.221 ± 0.2.

Turning to V25D, the abundance fitness is -0.142 ± 0.058.

V25M: the abundance fitness is -0.298 ± 0.072.

V25S: the abundance fitness is -0.225 ± 0.047.

For the variant V25I, the abundance fitness is -0.057 ± 0.089.

With V25C, the abundance fitness was -0.181 ± 0.052.

For V29T, the abundance fitness was -0.108 ± 0.059.

Regarding V29D, the abundance fitness was -0.414 ± 0.13.

Take V29S: the abundance fitness was -0.257 ± 0.086.

On to L32V, for which the abundance fitness is -0.167 ± 0.051.

As for L32M, the abundance fitness is -0.264 ± 0.087.

As to L32D, the abundance fitness is -0.531 ± 0.12.

For the variant L32Y, the abundance fitness was -0.302 ± 0.062.

On to L32R, for which the abundance fitness was found to be 0.026 ± 0.039.

For the variant L32W, the abundance fitness is -0.417 ± 0.058.

On to L32F, for which the abundance fitness was -0.407 ± 0.15.

As for L32A, the abundance fitness was -0.231 ± 0.044.

Regarding C26I, the abundance fitness was -0.783 ± 0.13.

C26T: the abundance fitness is -0.921 ± 0.13.

(Values after the Human Domainome abundance scans (Beltran et al. 2025).)
